Data reported in patent US9657059B2, “Immune system modulators” (Canimguide Therapeutics AB, priority 2013, dated 2017).

Biological target: P3028 (Homo sapiens, UniProt P02768)
Assay: PEPSCAN rampo assay: binding of P3028 to support-bound peptides, sandwich ELISA
Details: binding of P3028 to peptide on solid phase
Description: Based on the ability of P28R to bind the P3028 sequence/structure, unblock the LFA-1 receptor, and ameliorate the P3028 sequence/structure-dependent immunosuppression, P28R was used as a template compound to identify additional compounds that bind to and sequester P3028. Variants of the P28R structure were synthesized, and tested for the ability to bind P3028 using PEPSCAN technology (see Example 12). A library of peptides that include each genetically-coded amino acid substitution at each amino acid position of P28R (i.e., 19 substitutions for each position) was synthesized. Each peptide was affixed to a support pin, and the peptide library was incubated with P3028. The binding of the candidate inhibitors to P3028 was detected by a sandwich ELISA, where a rabbit anti-mouse peroxidase (rampo) secondary antibody was employed (see Example 12). The binding of each peptide was then assigned a rampo score (see FIG. 27). Peptide P28R had rampo values ranging between about 262 and 460 with a mean value of 370. In some embodiments, the immunoregulatory peptide inhibitor as disclosed herein, is selected for a desired P3028 binding rampo score. In some embodiments, the desired P3028 binding rampo score is greater than or equal to the rampo score of P28R. It is also contemplated that some peptides that bind to P3028 with less affinity than P28R have therapeutic application. Some peptides with binding affinities that are less than P28R, for example, may modulate signal transduction events differently than P28R by virtue of the fact that the affinity to P3028 is less. […] Accordingly, contemplated embodiments include peptides that bind with any affinity to P3028 (e.g., any one or more of the peptides provided in Table 5.1, preferably peptides that modulate the immune system (e.g., modulate, upregulate or down regulate a marker of the immune system or immunosuppression, such as reducing a P3028-mediated inhibition of immune cell proliferation, spreading, migration, or NK-cell cytotoxicity).
It is contemplated that inhibitors of any one or more of the peptides listed in Tables 1-4 can comprise modifications of the P28R (SEQ ID NO: 2) or P28 core (SEQ ID NO: 62) sequence, and further can be useful for reducing inhibition of the LFA-1 receptor, or for stimulating immune cells. To identify modification to inhibitor peptides in accordance with some embodiments herein, positional scan data was used to study the influence of substitution of different types of amino acids in each position of P28R (SEQ ID NO: 2) on the binding of P3028 (SEQ ID NO: 185). Each amino acid in the peptide sequence of P28R (SEQ ID NO: 2) was exchanged with all of the naturally occurring amino acids, and binding of P3028 (SEQ ID NO: 185) to each peptide on a solid phase chip was assessed (see, e.g. Example 36). A number of optional modifications to P28R in accordance with embodiments herein are summarized in Tables 5.3, 5.4, 5.5, 5.6, and 13. Optionally, an inhibitor peptide in accordance with some embodiments herein can comprise one or more of the modifications of Table 5.3 or Table 13. Optionally, an inhibitor peptide comprises a central core of positions 2, 5-11, and 15 as provided in Table 5.3, and the remaining position are omitted or substituted with substantially any amino acid. Optionally, an inhibitor peptide comprises a central core of positions K2, T5-S11, and E15 of SEQ ID NO: 2, and the remaining position are omitted or substituted with substantially any amino acid.
Embodiments of the invention also include immunoregulatory peptide inhibitors that have a specific affinity to P3028 sequences or structures. In some embodiments, the immunoregulatory peptide inhibitors have specific affinity to P3028 sequences or structures as measured by a rampo assay in which the immunoregulatory peptide inhibitors are affixed to a solid phase, P3028 is added, and the enzymatic activity of a rampo secondary antibody is measured so as to detect binding (see Example 12). […]

Substance	RAMPO Score
391 (KKLDTFFVKLSLFTER) [compound 391]	366
396 (KKLDTFFVKLSLFTER) [compound 396]	460
403 (KKLDTFFVKLSLFTER) [compound 403]	428
430 (KKLDTFFVKLSLFTER) [compound 430]	371
442 (KKLDTFFVKLSLFTER) [compound 442]	348
487 (KKLDTFFVKLSLFTER) [compound 487]	308

The next lines start with the values.

RAMPO Score	Substance
445	398 (KKLDTFFVKLSLFTER) [compound 398]
442	399 (KKLDTFFVKLSLFTER) [compound 399]
437	400 (KKLDTFFVKLSLFTER) [compound 400]
424	406 (KKLDTFFVKLSLFTER) [compound 406]
414	408 (KKLDTFFVKLSLFTER) [compound 408]
402	414 (KKLDTFFVKLSLFTER) [compound 414]
377	427 (KKLDTFFVKLSLFTER) [compound 427]
375	428 (KKLDTFFVKLSLFTER) [compound 428]
319	476 (KKLDTFFVKLSLFTER) [compound 476]
260	516 (KKLDTFFVKLSLFTER) [compound 516]

Biological target: P3028 (SEQ ID NO: 185) (Homo sapiens, UniProt P02768)
Assay: PEPSCAN (rampo) ELISA: binding of His-tagged P3028 to P28R variants on chip
Details: binding of His-tagged P3028 0.5 μg/mL to chip-bound peptide, OD405 raw value
Description: Based on the structure of peptide P28R, additional peptides were identified that bind to P3028. The additional binders included deletions, truncations, and or amino acid substitutions of peptide P28R. Binding of peptides to P3028 was assayed using PEPSCAN technology. PEPSCAN technology, or “rampo” assays are biochemical binding assays, details of which are provided below:
A peptide microarray screening technology was used to measure binding of P28R (SEQ ID NO: 2) and variants of P28R to P3028 (SEQ ID NO: 185). In this technology libraries of synthetic peptides are synthesized and covalently linked onto polypropylene microarray chips. The linear peptides were synthesized onto credit-card format polypropylene cards (455 peptide formats/card) as described by (Timmerman et al., 2004) using standard Fmoc-chemistry using hexamethylenediamine (HMDA) as linker and deprotection using trifluoroacetic acid (TFA) with scavengers.
The binding of His-tagged P3028 to each peptide on the card was tested in an ELISA assay. The 455-well credit card format polypropylene cards containing the covalently linked peptides were incubated with His-tagged P3028 peptide (PGE73) solution consisting of 0.5 μg/mL diluted in blocking solution (4% horse serum, 5% ovalbumin (w/v) in PBS/1% TWEEN reagent). After washing, the peptides were incubated with a monoclonal mouse anti-His-tag antibody (Novagen, 70796-3, diluted 1/1000 in the incubation buffer) and subsequently after washing with a rabbit-anti-mouse antibody peroxidase (Rampo) conjugate (Southern Biotech, 6175-05, diluted 1/1000), for one hour at 25° C. After washing, the peroxidase substrate 2,2′-azine-di-3-ethylbenzthiazoline sulfonate (ABTS) and 2 μL of 3% H2O2 were added. The binding capacity of the mAb was measured as a color development at 405 nm (optical density, OD405). The color development was quantified with a charge-coupled device (CCD)—camera and an image processing system.
The OD405-values obtained by a CCD-camera was considered as raw data values (“rampo values,” “rampo units,” or “rampo scores”). The values mostly ranged from 0 to 3000, a log scale similar to 1 to 3 of a standard 96-well plate ELISA-reader. First the CCD-camera made a picture of the card before peroxidase coloring and then again a picture after the peroxidase coloring. […] These values were copied into an excel file and labeled as a raw data file. One follow-up manipulation was allowed. Sometimes a well can contain an air-bubble resulting in a false-positive value. If manual inspection of the cards detect an air-bubble the value are set to 0 for that well.
A library of peptides tested for binding to peptide P3028 included all substitutions for each position of the peptide P28R (SEQ ID NO: 2) (i.e., 19 substitutions for each position). The results of the binding experiments are shown in FIGS. 27, 28, 29 and 30 and Table 5.1. […] P28R had rampo values ranging between 262 and 460 with a mean value of 370. […] In addition, M and S in position 7 (SEQ ID NOs: 9 and 10, respectively), and Q and M in position 11 (SEQ ID NOs: 15 and 16, respectively) all have rampo values over 700.
For each position of P28R, the rampo scores of the group of 19 different peptides containing an L-amino acid substitution were compared to the rampo score of a control sample P28R peptide (SEQ ID NO: 2) for that group. Single-amino acid substitutions having a rampo score greater than or substantially equivalent to P28R were identified. […]

RAMPO Score	Substance
260	391 (KKLDTFFVKLSLFTER) [compound 391]

Same assay, conditions: truncations, deletions, glycine substitutions (FIG. 29, 30)

Substance	rampo score / binding to P3028 compared with P28R
KKFFVKLSLFTER [SEQ ID NO: 76]	comparable to, or higher than peptide P28R
KKLDTFFVKLSFTER [SEQ ID NO: 68]	comparable to, or higher than peptide P28R
KKLDTFVKLSLFTER [SEQ ID NO: 65]	comparable to, or higher than peptide P28R
KKLTFFVKLSLFTER [SEQ ID NO: 64]	comparable to, or higher than peptide P28R

Tested on: PBMCs from a healthy control
Assay: PBMC activation (CD69, CD71) by flow cytometry in RPMI plus 10% human AB serum
Type: cell-based
Details: 40 μg/mL; 24 hours
Description: FIG. 41 is a series of graphs illustrating effects of modified peptides on activation of PBMCs from healthy control person. PBMCs were incubated with the peptides (40 μg/mL) for 24 hours in RPMI plus 10% human AB serum. Activation is determined as percentage of cells with enhanced marker CD69 using flow cytometry. FIG. 41A illustrates results of two experiments (410 and 412) performed for each peptide. FIG. 41B illustrates results of two experiments (414 and 416) performed for each peptide.
FIG. 42 is a series of graphs illustrating effects of the full length peptide P28R and the 6 amino acid central sequence (32230, FFVKLS, SEQ ID NO: 62) in culture medium containing normal human AB serum. Activation is determined as percentage of cells with enhanced marker CD69 or CD71 using flow cytometry. PBMCs were incubated with the peptides (40 μg/mL) for 24 hours in RPMI plus 10% human AB serum. FIG. 42A illustrates the results of two experiments (420 and 422) performed for each peptide. FIG. 42B illustrates the results of two experiments (424 and 426) performed for each peptide.
FIG. 46 is a series of graphs illustrating Effect of modified peptides on activation of PBMCs from healthy control person. […] PBMCs were incubated with the peptides (40 μg/mL) for 48 hours in RPMI plus 10% human AB serum.
Based on the positional scan data, it is contemplated that substitutions of SEQ ID NO: 2 can be useful in accordance with some embodiments herein for binding P3028, de-blocking the LFA-1 receptor from P3028-mediated inhibition (e.g. displacing bound P3028 peptide and P3028-structure containing molecules from the LFA-1 receptor), and/or stimulating immune cells. The activity of peptide P28R (SEQ ID NO: 2) and modifications of P28R was studied in a human ex vivo model using PBMCs from a healthy control human in short term cultures, and with PBMC activation measured as a percentage of cells with enhanced CD69 (see Example 37).
As P28R (SEQ ID NO: 2) can bind to P3028 and stimulate PBMC's from healthy controls in short term cultures, for example when in a culture medium comprising RPMI plus 10% normal human AB serum (see Example 37), it is contemplated that truncations of P28R in accordance with some embodiments herein can be useful for binding to inhibitors of any one or more of the peptides listed in Tables 1-4. Truncations of P28R were assessed for their ability to activate PBMC's (see Example 38). PBMCs were incubated with the peptides (40 μg/mL) for 24 hours in RPMI plus 10% human AB serum. PBMC activation was measured as percent cells with enhanced expression of either CD69 (FIG. 42A) or CD71 (FIG. 42B) using flow cytometry. […] However, PBMCs were also incubated with the peptides in cancer sera from dogs, or in caner sera from human cancer patients (see FIG. 43). […] As such, it is contemplated that in accordance with some embodiments herein, P28R, P28 core, or combinations of these peptides are useful for stimulating immune cells in the serum of a subject that has cancer.
Effects of modified peptides on the activation of PBMCs from a healthy control person were assessed (see Example 41). PBMCs were incubated with the peptides (40 μg/mL) for 48 hours in RPMI plus 10% human AB serum, and PBMC activation was determined by flow cytometry based on the percentage of cells with enhanced marker CD69 or CD71. Peptides P28R (SEQ ID NO: 2), P28 core (peptide 32230) (SEQ ID NO: 62), 32251 ([…]) (SEQ ID NO: 592), 32814 ([…]) (SEQ ID NO: 586), 32815 ([…]) (SEQ ID NO: 595), 32665 ([…]) (SEQ ID NO: 593), and 32819 ([…](C(PEG24))) (SEQ ID NO: 594) were tested. […] Accordingly, it is contemplated herein that

Substance	PBMC activation, cells with enhanced CD69
KKLDTFFVDLSLFTER [compound 31138]	did not stimulate
KKLDTFFVKLSLFTFR [compound 30685]	did not stimulate
KKLDTFFVNLSLFTER [compound 31136]	did not stimulate
KSLDTFFVKLSLFTER [compound 30864]	did not stimulate
